System: K4 kissing-loop RNA reporter
Experiment: apparent KD of K4 kissing-loop reporter; higher = weaker reporter binding
Conditions: Eterna round: R107
Protocol: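 RNA-MaP round R107: designed RNA switches with theophylline, tryptophan, arginine or FMN aptamers are transcribed on-chip within common flanks. They are titrated with a labelled K4 kissing-loop RNA reporter in RNA-MaP buffer (100 mM Tris pH 7.5, 80 mM KCl, 4 mM MgCl2), without ligand or with the indicated ligand. Median apparent KD per design.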

[1] = input ligand: theophylline 20 uM
[2] = input ligand: tryptophan 2.4 mM
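Further: bound reporter read as fluorescence of individual clusters on recovered sequencing chips by microscopy, with normalized cluster intensities fitted with a binding model.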

Row | Sequence | apparent KD of K4 kissing-loop reporter (input ligand: FMN 200 uM) [nM] | apparent KD of K4 kissing-loop reporter (input ligand: arginine 13.2 mM) [nM] | apparent KD of K4 kissing-loop reporter (input ligand: none) [nM] | apparent KD of K4 kissing-loop reporter [1] [nM] | apparent KD of K4 kissing-loop reporter [2] [nM]
1 | UGAUGUUUAGGUCACCCAGUGAUGUUGGAAGGAGCGUGCGAAAGCACAGGUAGGUCGCCAACCUAAAAGUGACCUGAGCAUCUAA [#SwitchBubble 8 #K4Early] | 496 | 210 | 511 | 427 | 846
2 | UGCAUCGUUGGCAGGCGCACCACACAGUGUAAGGAUAUGAUGUCGUUCAGAAGGUACGCUUGACCGAGUGAUGUUCGGGAGUGCC [theeternabot_sameState_KL_FMN_A_9] | 224 | 200 | 218 | 245 | 196
3 | UGCCGCAAGGCGAGCGCUCCCACUCCGGAAGGAGCGCCCGUAAGGGCAGGUAGGUCGCCGGAGUGAUGUUCCGGUGGAGGGCUCG [#2 Exclusion - Arginine A Attempt #24 (Inspired by Omei)] | 1270 | 283 | 537 | 398 | 351
4 | UGGACCAAGGAGUGAUGUUCCAAAUGUGAUACCAGCCACGAAAGUGGCCCUUGGCAGCACUGCCAAAGGACGAAAGUCCGGUCCU [#SwitchBubble 10 #StaticStem #K4Early] | 371 | 352 | 382 | 659 | 280
5 | UGGACCUGACUCGAUAAGAGUCAAAGGGAUACCAGCCACGAAAGUGGCCCUUGGCAGCUCUGCCAGUGAUGUUGGUCAAGGUCCU [#SwitchBubble 6 #StaticStem] | 925 | 701 | 1310 | 590 | 854
6 | UGGACCUGACUCGAUAAGAGUCAAUGGGAUACCAGCCACGAAAGUGGCCCUUGGCAGCUCUACCAGUGAUGUUGGUCAAGGUCCU [#SwitchBubble 8 #StaticStem] | 1050 | 511 | 860 | 716 | 899
7 | UGGAGGAGUGAUGUUCCCGAAACAUGAGAUACCAGCGUCACAGUCCGCCCUUGGCAGCUCGGUCCAAUUUGCCUCGCGGGUAAUG [theeternabot_sameState_KL_Theo_A_23] | 244 | 251 | 299 | 257 | 182
8 | UGGAGUUGACGAAAAGUCAACUCCCGAGAAGGAGCGGACGAAAGUCCAGGUAGGUCGCUCGCUACCAGUGAUGUUGGUACAUAAA | 101 | 153 | 130 | 147 | 109
9 | UGGAGUUGACGAAAAGUCAACUCCUGAGAAGGAGCGGACGAAAGUCCAGGUAGGUCGCUCACUAGCAGUGAUGUUGCUACAUAAA [#OpenEnded 2] | 202 | 211 | 219 | 253 | 208
10 | UGGAGUUGACGAAAAGUCAACUCCUGAGAUACCAGUGACGAAAGUCACCCUUGGCAGCUCACUGCCAGUGAUGUUGGAAAUAAAA [#01 K4 Theophylline A Same State] | 346 | 182 | 224 | 337 | 217
11 | UGGAGUUGACGAAAAGUCAACUCCUGAGAUACCAGUGACGAAAGUCACCCUUGGCAGCUCACUGCCAGUGAUGUUGGAAGAUAAA [whbob_SS_Theo_A_w46] | 208 | 149 | 438 | 289 | 585
12 | UGGAGUUGACGAAGAGUCAACUCCUGAGAUACCAGUGACGAAAGUCACCCUUGGCAGCUCUCUGCCAGUGAUGUUGGUUUAUAAG [#07 K4 Theophylline A Same State] | 139 | 89.4 | 144 | 177 | 117
13 | UGGCGAGUGAUGUUCGUUGUUGUUGUGUGUCGAGGACCGGUACGGCCGCCACUCGAGUUGGUUGUUGUUGUUGCUGUUGUUGCUG [#04 K4 Tryptophan A Same State] | 158 | 124 | 155 | 130 | 87.6
14 | UGGUCUGCACGAAGGAGCGCCCUGACAGGUUGCUGCCGUGGGCAGUGAUGUUGCUUAGUCCGGCAGGUAGGUCGCGUGCAGACCA | 210 | 205 | 243 | 189 | 170
15 | UGGUUUAACUGAAGGAGCGGCAAUUGAUAAGUAAAUAUAGUGAUGUUAUAUAAGAUAGAGAGCCAGGUAGGUCGCAGAGGUAUUU [ExArgB.O] | 145 | 147 | 141 | 143 | 141
16 | UGUACCGAAUCAGGAUAUGUCGUCGAAAGACGAAAUGGAGUGAUGUUCCUUAAACUGCGAAAGCAGACAGAAGGGAUUUGGUACU [FmnBS 29 A9+U77] | 161 | 386 | 470 | 403 | 385
17 | UGUACCGAGUCAGGAUAUCAUAAAGUUGGAGUGAUGUUCCAAUAACGACUGACAAAGUCGGUCGAUUGAGAAGGGACUUGGUACU [FmnBS 9 #SwitchBubble #StaticStem] | 160 | 139 | 141 | 143 | 151
